Reference: article PMC9938897, “CvkR is a MerR-type transcriptional repressor of class 2 type V-K CRISPR-associated transposase systems”
Positions count from the first letter of the chain named.

B1: Pwt (dsDNA)
DNA 1: TTGTATAACATTATGTGTTTTGTATGGTATTTT
DNA 2: AAAATACCATACAAAACACATAATGTTATACAA
B2: Pcas12k (dsDNA)
DNA 1: AAGAAACATCCTATAGAAGCATCTTCTAAAACACATTAGTGCTTTGTATAACATTATGTGTTTTGTATGGTATTTTATTTTTA
DNA 2: TAAAAATAAAATACCATACAAAACACATAATGTTATACAAAGCACTAATGTGTTTTAGAAGATGCTTCTATAGGATGTTTCTT
B3: PtnsBcenter (dsDNA)
DNA 1: TTTAGAATAACATTATGTATTTATAAATTACCTTTGTTTCA
DNA 2: TGAAACAAAGGTAATTTATAAATACATAATGTTATTCTAAA
B4: PtnsB (dsDNA)
DNA 1: AAAGGTTTTGTATATTTTCATAATGACAAATTGACTGTCGTTTTCTCCACGTTTAGAATAACATTATGTATTTATAAATT
DNA 2: AATTTATAAATACATAATGTTATTCTAAACGTGGAGAAAACGACAGTCAATTTGTCATTATGAAAATATACAAAACCTTT
B5: Ptracr (dsDNA)
DNA 1: TTAGCCCTCTATGCTTATAGTCTCCGCCTAGCTAGGCGAAGTTGACAAACATCTGAACCTTGAAAATATAATATGTAATA
DNA 2: TATTACATATTATATTTTCAAGGTTCAGATGTTTGTCAACTTCGCCTAGCTAGGCGGAGACTATAAGCATAGAGGGCTAA
B6: PpsbAI (dsDNA)
DNA 1: GGAATAATTAACATTAAGAATTATTAATTCATGGGTTTTTAGTCTAGTAAATTTGCGTGAATTCATGTAAATTTTATGAG
DNA 2: CTCATAAAATTTACATGAATTCACGCAAATTTACTAGACTAAAAACCCATGAATTAATAATTCTTAATGTTAATTATTCC
B7: P45 (dsDNA)
DNA 1: TAAGAAACATCCTATAGAAGCATCTTCTAAAACACATTAGTGCTTT
DNA 2: AAAGCACTAATGTGTTTTAGAAGATGCTTCTATAGGATGTTTCTTA
B8: Pcas12kcenter (dsDNA)
DNA 1: CTAAAACACATTAGTGCTTTGTATAACATTATGTGTTTTGTAT
DNA 2: ATACAAAACACATAATGTTATACAAAGCACTAATGTGTTTTAG
B9: P43 (dsDNA)
DNA 1: TGCTTTGTATAACATTATGTGTTTTGTATGGTATTTTATTTTT
DNA 2: AAAAATAAAATACCATACAAAACACATAATGTTATACAAAGCA
B10: P15-5 (dsDNA)
DNA 1: B1 DNA 1 with T12A
DNA 2: B1 DNA 2 with A22T

molecular target: CvkR R42E (Anabaena sp. PCC 7120, UniProt A0ACD6B984 19-168, R60E); assay: EMSA; EMSA: 10 mM Tris-HCl pH 8.0, 25 mM MgCl2, 50 mM NaCl, 1 mM DTT, 1 mM EDTA, 50 ug/mL poly(dI-dC), 0.01% NP-40, 10% glycerol, 2 nM probe, 25 C 30 min; footprinting: 50 mM Tris-HCl pH 8.0, 100 mM KCl, 2.5 mM MgCl2, 0.2 mM DTT, 10% glycerol, 2 ug salmon sperm DNA, RT; details: protein: recombinant; tags: 6xHis-SUMO removed by Ulp1; chain copies: 2; label: 5'-biotin; blunt
Sequence (A0ACD6B984 entry or part of it R60E | R42E R42E): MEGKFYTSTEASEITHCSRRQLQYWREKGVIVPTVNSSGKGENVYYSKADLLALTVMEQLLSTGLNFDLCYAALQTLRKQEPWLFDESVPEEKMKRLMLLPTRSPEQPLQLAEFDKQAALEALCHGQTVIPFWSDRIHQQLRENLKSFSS

Binder | binding result
B1 | no binding

molecular target: T1, CvkR (Alr3614) (Anabaena sp. PCC 7120, UniProt A0ACD6B984 19-168); assay: as above; details: protein: recombinant; tags: 6xHis-SUMO removed by Ulp1 (BamHI site; possible vector residues at N-term); chain copies: 2; label: 5'-biotin; blunt
T1 sequence (A0ACD6B984 entry or part of it): as the sequence (A0ACD6B984 entry or part of it R60E | R42E R42E) above, with E42R counted along it

Binder | binding result
B1 | binds
B2 | binds
B3 | binds
B4 | binds
B5 | no binding
B6 | no binding
B7 | no binding
B8 | binds
B9 | binds

molecular target: CvkRmut (Anabaena sp. PCC 7120, UniProt A0ACD6B984 19-168, R37A;R38A;Q41A;K58A;R60A;N84A); assay: as above; details: protein: recombinant; tags: 6xHis-SUMO removed by Ulp1; chain copies: 2; label: 5'-biotin; blunt
Sequence (A0ACD6B984 entry or part of it R37A;R38A;Q41A;K58A;R60A;N84A): as the sequence (A0ACD6B984 entry or part of it R60E | R42E R42E) above, with R19A, R20A, Q23A, K40A, E42A, N66A counted along it

Binder | binding result
B1 | no binding

molecular target: T1, CvkR (Alr3614); assay: EMSA; no effect of mutation; EMSA: 10 mM Tris-HCl pH 8.0, 25 mM MgCl2, 50 mM NaCl, 1 mM DTT, 1 mM EDTA, 50 ug/mL poly(dI-dC), 0.01% NP-40, 10% glycerol, 2 nM probe, 25 C 30 min; footprinting: 50 mM Tris-HCl pH 8.0, 100 mM KCl, 2.5 mM MgCl2, 0.2 mM DTT, 10% glycerol, 2 ug salmon sperm DNA, RT; details: protein: recombinant; tags: 6xHis-SUMO removed by Ulp1 (BamHI site; possible vector residues at N-term); chain copies: 2; label: 5'-biotin; blunt

Binder | binding result
B10 | binds
